Assays:
[1] = SEC; analytical SEC, Superdex 75 Increase 10/300 GL; 100 μL of protein solution (1.0 mg·mL^−1); 20 mM Tris–HCl (pH 8.0), 150 mM NaCl; masses from a calibration standard; self-association, dimer to monomers
[2] = target: TTE^Δ110, TTE0866 with the N-terminal 110 residues truncated (Caldanaerobacter subterraneus subsp. tengcongensis); assay: as above

Question: Which “percent dimer (SEC peak area)” value [1] does the source give for “TTE^Δ110, TTE0866 with the N-terminal 110 residues truncated” here?
Answer: the dimer‐to‐monomer percentage of TTE^Δ110 was 20% and 80%

Question: For “TTE^Δ110, TTE0866 with the N-terminal 110 residues truncated (domain or fragment)”, which stoichiometry N [2] is on record?
Answer: 2
